The values below come from paper PMC9794699.

Experiment [1] addresses low-density lipoprotein receptor-related protein 1 (LRP1), endogenous in WI38 lung fibroblasts (human (endogenous in WI38)) (UniProt Q07954).
For experiment [2] the target is unchanged. The source holds these as a separate data set.

Chain of UniProt Q07954 (Q07954 20-4544): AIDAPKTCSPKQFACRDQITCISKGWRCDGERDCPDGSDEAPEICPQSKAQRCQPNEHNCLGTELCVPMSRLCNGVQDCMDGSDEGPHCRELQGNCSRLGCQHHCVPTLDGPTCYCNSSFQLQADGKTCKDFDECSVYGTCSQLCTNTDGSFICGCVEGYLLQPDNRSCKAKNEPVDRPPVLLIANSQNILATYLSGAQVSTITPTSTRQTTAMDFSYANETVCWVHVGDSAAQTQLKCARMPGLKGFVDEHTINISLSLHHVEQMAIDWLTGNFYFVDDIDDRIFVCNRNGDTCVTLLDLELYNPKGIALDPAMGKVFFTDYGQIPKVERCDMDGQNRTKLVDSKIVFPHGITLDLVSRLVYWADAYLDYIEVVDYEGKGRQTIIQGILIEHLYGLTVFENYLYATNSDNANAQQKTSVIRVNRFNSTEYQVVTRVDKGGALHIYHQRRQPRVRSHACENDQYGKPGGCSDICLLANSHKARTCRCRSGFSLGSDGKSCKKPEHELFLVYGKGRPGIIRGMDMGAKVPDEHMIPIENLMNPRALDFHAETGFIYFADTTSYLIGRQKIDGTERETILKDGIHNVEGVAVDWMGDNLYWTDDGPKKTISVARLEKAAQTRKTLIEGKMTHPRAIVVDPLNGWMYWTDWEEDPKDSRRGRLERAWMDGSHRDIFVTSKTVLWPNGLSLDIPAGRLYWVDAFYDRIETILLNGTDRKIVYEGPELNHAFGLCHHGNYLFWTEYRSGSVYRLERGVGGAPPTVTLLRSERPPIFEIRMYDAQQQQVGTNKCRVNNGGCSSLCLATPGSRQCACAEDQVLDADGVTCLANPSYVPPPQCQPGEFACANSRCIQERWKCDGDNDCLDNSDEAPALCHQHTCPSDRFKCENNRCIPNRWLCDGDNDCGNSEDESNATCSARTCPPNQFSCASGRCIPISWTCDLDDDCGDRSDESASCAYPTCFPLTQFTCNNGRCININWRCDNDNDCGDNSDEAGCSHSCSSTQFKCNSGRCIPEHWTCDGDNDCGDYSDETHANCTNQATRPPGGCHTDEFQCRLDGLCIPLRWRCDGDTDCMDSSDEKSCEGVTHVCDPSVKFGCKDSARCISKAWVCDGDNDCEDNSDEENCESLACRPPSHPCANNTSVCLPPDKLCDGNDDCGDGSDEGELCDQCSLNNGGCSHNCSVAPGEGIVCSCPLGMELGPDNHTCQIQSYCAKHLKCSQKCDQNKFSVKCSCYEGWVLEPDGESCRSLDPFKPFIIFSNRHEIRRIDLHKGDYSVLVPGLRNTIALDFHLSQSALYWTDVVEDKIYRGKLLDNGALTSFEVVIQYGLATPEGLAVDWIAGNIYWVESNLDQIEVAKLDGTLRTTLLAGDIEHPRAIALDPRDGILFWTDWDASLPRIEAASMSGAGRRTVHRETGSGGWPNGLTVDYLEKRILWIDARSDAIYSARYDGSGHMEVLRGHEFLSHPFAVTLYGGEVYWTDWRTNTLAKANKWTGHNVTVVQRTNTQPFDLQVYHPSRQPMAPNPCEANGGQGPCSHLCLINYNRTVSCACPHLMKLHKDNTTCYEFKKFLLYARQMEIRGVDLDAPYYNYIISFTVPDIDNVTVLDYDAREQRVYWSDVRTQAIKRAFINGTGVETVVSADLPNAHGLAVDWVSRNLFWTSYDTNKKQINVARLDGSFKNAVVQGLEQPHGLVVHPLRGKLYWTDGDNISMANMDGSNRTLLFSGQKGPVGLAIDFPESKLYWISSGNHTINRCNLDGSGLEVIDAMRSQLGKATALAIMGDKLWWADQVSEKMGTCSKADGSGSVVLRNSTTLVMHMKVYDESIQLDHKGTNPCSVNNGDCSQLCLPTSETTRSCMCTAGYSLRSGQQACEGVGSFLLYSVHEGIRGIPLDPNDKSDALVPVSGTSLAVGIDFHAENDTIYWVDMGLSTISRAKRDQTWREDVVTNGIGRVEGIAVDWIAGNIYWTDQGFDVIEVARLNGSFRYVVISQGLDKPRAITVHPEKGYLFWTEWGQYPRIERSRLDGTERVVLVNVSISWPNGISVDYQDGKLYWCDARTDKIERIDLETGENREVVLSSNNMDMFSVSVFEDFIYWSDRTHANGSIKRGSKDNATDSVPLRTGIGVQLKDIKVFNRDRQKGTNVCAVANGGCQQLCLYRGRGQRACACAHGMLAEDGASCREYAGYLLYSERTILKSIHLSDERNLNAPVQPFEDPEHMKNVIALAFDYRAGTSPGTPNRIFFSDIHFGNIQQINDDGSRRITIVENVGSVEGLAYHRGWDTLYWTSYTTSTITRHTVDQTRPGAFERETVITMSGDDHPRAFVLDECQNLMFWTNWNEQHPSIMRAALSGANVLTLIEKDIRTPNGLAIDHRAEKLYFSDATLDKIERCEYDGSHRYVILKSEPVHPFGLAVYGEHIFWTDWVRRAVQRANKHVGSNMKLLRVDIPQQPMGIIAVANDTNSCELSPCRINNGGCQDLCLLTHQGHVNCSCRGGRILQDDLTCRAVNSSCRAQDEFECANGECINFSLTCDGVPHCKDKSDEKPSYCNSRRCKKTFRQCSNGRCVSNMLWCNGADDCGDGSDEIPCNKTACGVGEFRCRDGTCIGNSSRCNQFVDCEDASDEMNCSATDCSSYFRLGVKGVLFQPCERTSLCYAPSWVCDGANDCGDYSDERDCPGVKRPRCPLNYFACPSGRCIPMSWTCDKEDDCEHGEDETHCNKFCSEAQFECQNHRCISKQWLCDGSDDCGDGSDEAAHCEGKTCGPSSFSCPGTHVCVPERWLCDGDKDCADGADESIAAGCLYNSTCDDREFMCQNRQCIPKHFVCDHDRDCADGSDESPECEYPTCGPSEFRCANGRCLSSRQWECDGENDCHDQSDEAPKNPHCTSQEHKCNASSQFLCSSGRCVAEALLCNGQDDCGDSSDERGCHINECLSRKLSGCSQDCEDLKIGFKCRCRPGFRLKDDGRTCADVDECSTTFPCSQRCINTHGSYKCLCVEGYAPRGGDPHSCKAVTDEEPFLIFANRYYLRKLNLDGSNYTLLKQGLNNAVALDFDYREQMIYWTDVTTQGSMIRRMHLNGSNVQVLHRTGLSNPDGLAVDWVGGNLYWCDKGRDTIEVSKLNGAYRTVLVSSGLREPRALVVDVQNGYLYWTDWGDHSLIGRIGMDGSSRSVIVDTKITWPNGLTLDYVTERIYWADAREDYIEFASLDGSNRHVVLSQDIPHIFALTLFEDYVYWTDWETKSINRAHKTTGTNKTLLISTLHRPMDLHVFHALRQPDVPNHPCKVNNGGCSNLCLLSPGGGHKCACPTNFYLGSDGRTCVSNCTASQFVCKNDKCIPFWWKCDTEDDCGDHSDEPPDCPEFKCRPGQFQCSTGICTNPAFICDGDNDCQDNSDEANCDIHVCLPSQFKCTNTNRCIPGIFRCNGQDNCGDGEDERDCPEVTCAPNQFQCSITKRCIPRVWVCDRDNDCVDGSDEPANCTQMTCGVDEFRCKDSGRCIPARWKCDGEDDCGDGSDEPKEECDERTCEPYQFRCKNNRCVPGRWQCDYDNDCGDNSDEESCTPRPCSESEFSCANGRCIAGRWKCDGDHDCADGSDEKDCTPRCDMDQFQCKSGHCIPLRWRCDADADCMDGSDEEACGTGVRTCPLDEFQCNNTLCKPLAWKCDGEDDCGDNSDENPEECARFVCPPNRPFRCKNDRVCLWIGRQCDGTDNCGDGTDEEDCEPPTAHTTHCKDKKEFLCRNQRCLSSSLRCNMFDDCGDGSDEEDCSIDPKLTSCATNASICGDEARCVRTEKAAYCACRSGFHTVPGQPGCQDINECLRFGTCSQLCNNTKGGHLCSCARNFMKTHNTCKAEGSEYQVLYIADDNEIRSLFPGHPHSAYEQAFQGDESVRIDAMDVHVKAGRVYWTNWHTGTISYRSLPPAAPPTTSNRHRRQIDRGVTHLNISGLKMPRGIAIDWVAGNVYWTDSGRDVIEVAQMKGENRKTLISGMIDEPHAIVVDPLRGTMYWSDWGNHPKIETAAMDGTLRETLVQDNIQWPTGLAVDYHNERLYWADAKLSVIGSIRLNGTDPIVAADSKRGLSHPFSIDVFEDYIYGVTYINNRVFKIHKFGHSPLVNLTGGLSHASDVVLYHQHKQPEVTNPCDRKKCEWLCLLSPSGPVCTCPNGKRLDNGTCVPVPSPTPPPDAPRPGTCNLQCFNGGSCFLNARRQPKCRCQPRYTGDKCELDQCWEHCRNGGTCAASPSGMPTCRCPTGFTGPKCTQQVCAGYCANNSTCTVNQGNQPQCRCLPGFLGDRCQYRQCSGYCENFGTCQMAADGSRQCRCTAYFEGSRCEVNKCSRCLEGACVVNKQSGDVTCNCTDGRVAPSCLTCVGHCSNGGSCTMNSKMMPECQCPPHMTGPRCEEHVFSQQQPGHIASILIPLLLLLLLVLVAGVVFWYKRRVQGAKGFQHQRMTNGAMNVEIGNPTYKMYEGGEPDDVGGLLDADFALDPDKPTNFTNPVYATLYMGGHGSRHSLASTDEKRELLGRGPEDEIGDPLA

Regarding “PRSS2 (serine protease PRSS2, wild type), ectopically expressed in 293T cells (from UniProt P07478 16-247) (enzyme)”, the repression of Tsp-1 protein (western blot) in mock-transfected WI38 fibroblasts treated with CM from 293T cells expressing PRSS2 in experiment [1] came to 58%. Besides, in experiment [2], the Rac-GTPase activity (G-LISA) in WI38 cells treated with CM from 293T cells expressing PRSS2, compared to CM from empty vector-transfected cells was 2 fold and the Rho-GTPase activity (G-LISA) in WI38 cells treated with PRSS2 CM (fold decrease) was found to be 3.2.
